Source: US20140303084A1 (Biogen, published 2014)
Square brackets hold non-standard residues; d marks the D form. Primed or numbered codes have the meaning given here. Side chains are listed from the residue outwards. Ends that are not written are not given here. * marks the point of attachment. Biotin = O=C1N[C@H]2[C@H](CS[C@H]2CCCCC(=O)*)N1; PEG2(3) = PEG2 spacer carrying biotin on Lys; NMeY = CN[C@@H](Cc1ccc(O)cc1)C(=O)O; NMeL = CN[C@@H](CC(C)C)C(=O)O

What follows are binders tested against human Factor IXa (human, UniProt P00740 47-191; P00740 227-461) (assay: cell-based or functional assay).

| EC50 [µM], FXa generation assay [µM] | EC50 [µM], FXa generation assay with hFIXa [µM] | Binder |
| --- | --- | --- |
| > 1 |  | SRI[dR]TVSPGS[dR]SASGKSTCLASYCWLFWTGIA (not fully specified; printed as SRIrTVSPGSrSASGKSTCLASYCWLFWTGIA; cysteine pairing not given here) [SRIrTVSPGSrSASGKSTCLASYCWLFWTGIA] |
| < 0.5 |  | SKQGRPISPD[dR]RAAGKLTCLASYCWLFWT (not fully specified; printed as SKQGRPISPDrRAAGKLTCLASYCWLFWT; cysteine pairing not given here) [SKQGRPISPDrRAAGKLTCLASYCWLFWT] |
| > 10 |  | SKQGRPISPD[dR]RAAGKLTCLAS[NMeY]CWLFWTGIA (not fully specified; cysteine pairing not given here) [SKQGRPISPDrRAAGKLTCLAS-NMeTyr-CWLFWTGIA] |
| < 0.5 |  | SKQGRPISSD[dR]RASGKLTCLASYCWLFWTGIA (not fully specified; printed as SKQGRPISSDrRASGKLTCLASYCWLFWTGIA; cysteine pairing not given here) [SKQGRPISSDrRASGKLTCLASYCWLFWTGIA] |
| > 10 |  | SKQGRPISPD[dR]RAAGKLTCLASYCW[NMeL]FWTGIA (not fully specified; cysteine pairing not given here) [SKQGRPISPDrRAAGKLTCLASYCW-NMeLeu-FWTGIA] |
| < 0.5 |  | TALSRGLVTMRTAPDKLTCLASYCWLFWTGIA [TALSRGLVTM RTAPD KLTCLASYCWLFWTGIA] |
| > 10 |  | SKQGRPISPD[dR]RAAGKLTCL[dA]SYCWLFWTGIA (not fully specified; printed as SKQGRPISPDrRAAGKLTCLaSYCWLFWTGIA; cysteine pairing not given here) [SKQGRPISPDrRAAGKLTCLaSYCWLFWTGIA] |
| < 0.5 |  | SKQGRPISSD[dR]RAAGKSTCLASYCWLFWTGIA (not fully specified; printed as SKQGRPISSDrRAAGKSTCLASYCWLFWTGIA; cysteine pairing not given here) [SKQGRPISSDrRAAGKSTCLASYCWLFWTGIA] |
|  | > 25 | LYTAWIKCQFARLPGCALSGRW-NH2 (cysteine pairing not given here) [compound C] |
| < 0.5 |  | SKQGRPISSD[dR]RASGKSTCLASYCWLFWTGIA (not fully specified; printed as SKQGRPISSDrRASGKSTCLASYCWLFWTGIA; cysteine pairing not given here) [SKQGRPISSDrRASGKSTCLASYCWLFWTGIA] |
| < 0.5 |  | SKQGRPISPD[dR]RAAGKLTCLASYCWLFWTGI (not fully specified; printed as SKQGRPISPDrRAAGKLTCLASYCWLFWTGI; cysteine pairing not given here) [SKQGRPISPDrRAAGKLTCLASYCWLFWTGI] |
| < 0.5 |  | SKQGRPISPD[dR]RAAGKLTCLASYCWLFWTG (not fully specified; printed as SKQGRPISPDrRAAGKLTCLASYCWLFWTG; cysteine pairing not given here) [SKQGRPISPDrRAAGKLTCLASYCWLFWTG] |
| < 0.5 |  | SKQGRPISPD[dR]RAAGKLTCLASYCWLFW (not fully specified; printed as SKQGRPISPDrRAAGKLTCLASYCWLFW; cysteine pairing not given here) [SKQGRPISPDrRAAGKLTCLASYCWLFW] |
| < 0.5 |  | SKQGRPISSD[dR]RAAGKLTCLASYCWLFWTGIA (not fully specified; printed as SKQGRPISSDrRAAGKLTCLASYCWLFWTGIA; cysteine pairing not given here) [SKQGRPISSDrRAAGKLTCLASYCWLFWTGIA] |

Second part, the binder before the results:

| Binder | EC50 [µM], FXa generation assay [µM] | EC50 [µM], FXa generation assay with hFIXa [µM] |
| --- | --- | --- |
| AKQGRPISPD[dR]RAAGKLTCLASYCWLFWTGIA (not fully specified; printed as AKQGRPISPDrRAAGKLTCLASYCWLFWTGIA; cysteine pairing not given here) [AKQGRPISPDrRAAGKLTCLASYCWLFWTGIA] | < 0.5 |  |
| SKQGAPISPD[dR]RAAGKLTCLASYCWLFWTGIA (not fully specified; printed as SKQGAPISPDrRAAGKLTCLASYCWLFWTGIA; cysteine pairing not given here) [SKQGAPISPDrRAAGKLTCLASYCWLFWTGIA] | < 0.5 |  |
| SKAGRPISPD[dR]RAAGKLTCLASYCWLFWTGIA (not fully specified; printed as SKAGRPISPDrRAAGKLTCLASYCWLFWTGIA; cysteine pairing not given here) [SKAGRPISPDrRAAGKLTCLASYCWLFWTGIA] | < 0.5 |  |
| GRAMAAEPWPRQAPGKLTCLASYCWLFWTGIA [GRAMAAEPWP RQAPG KLTCLASYCWLFWTGIA] | < 0.5 |  |
| SAQGRPISPD[dR]RAAGKLTCLASYCWLFWTGIA (not fully specified; printed as SAQGRPISPDrRAAGKLTCLASYCWLFWTGIA; cysteine pairing not given here) [SAQGRPISPDrRAAGKLTCLASYCWLFWTGIA] | < 0.5 |  |
| AQWVGRGQWAIRAPGKLTCLASYCWLFWTGIA [AQWVGRGQWA IRAPG KLTCLASYCWLFWTGIA] | > 1 |  |
| SKQGRPISPA[dR]RAAGKLTCLASYCWLFWTGIA (not fully specified; printed as SKQGRPISPArRAAGKLTCLASYCWLFWTGIA; cysteine pairing not given here) [SKQGRPISPArRAAGKLTCLASYCWLFWTGIA] | < 0.5 |  |
| SKQGRPISAD[dR]RAAGKLTCLASYCWLFWTGIA (not fully specified; printed as SKQGRPISADrRAAGKLTCLASYCWLFWTGIA; cysteine pairing not given here) [SKQGRPISADrRAAGKLTCLASYCWLFWTGIA] | < 0.5 |  |
| PRIRTVGPGSRSASGKLTCLASYCWLFWTGI | < 0.5 |  |
| SKQGRPISPDRRAAGKLTCLASYCWLFWTGIA[PEG2(3)]K([PEG2(3)-Biotin]) (cysteine pairing not given here) [SKQGRPISPDRRAAGKLTCLASYCWLFWTGIA-PEG2-K(PEG2-Biotin)] | > 1 |  |
| GSVRRALFVAARAPAKLTCLASYCWLFWTGIA [GSVRRALFVA ARAPA KLTCLASYCWLFWTGIA] | < 0.5 |  |
| SKQARPISPD[dR]RAAGKLTCLASYCWLFWTGIA (not fully specified; printed as SKQARPISPDrRAAGKLTCLASYCWLFWTGIA; cysteine pairing not given here) [SKQARPISPDrRAAGKLTCLASYCWLFWTGIA] | > 1 |  |
| RRFVGGSLSQRRAPGKLTCLASYCWLFWTGIA [RRFVGGSLSQ RRAPG KLTCLASYCWLFWTGIA] | < 0.5 |  |
| PTDTGPVISGLRAPGKLTCLASYCWLFWTGIA [PTDTGPVISG LRAPG KLTCLASYCWLFWTGIA] | < 0.5 |  |
| SKQGRPIAPD[dR]RAAGKLTCLASYCWLFWTGIA (not fully specified; printed as SKQGRPIAPDrRAAGKLTCLASYCWLFWTGIA; cysteine pairing not given here) [SKQGRPIAPDrRAAGKLTCLASYCWLFWTGIA] | < 0.5 |  |
| RPRSSAHDRPRRAAGKLTCLASYCWLFWTGIA [RPRSSAHDRP RRAAG KLTCLASYCWLFWTGIA] | > 1 |  |
| SKQGRAISPD[dR]RAAGKLTCLASYCWLFWTGIA (not fully specified; printed as SKQGRAISPDrRAAGKLTCLASYCWLFWTGIA; cysteine pairing not given here) [SKQGRAISPDrRAAGKLTCLASYCWLFWTGIA] | > 1 |  |
| PARGKERELMRRAPGKLTCLASYCWLFWTGIA [PARGKERELM RRAPG KLTCLASYCWLFWTGIA] | > 1 |  |
| PRIRTVGPGSRSASGKLTCLASYCWLFWTFIA | < 0.5 |  |
| PRIRTVGPGSRSASGKLTCSASYCWLFWTGIA | > 1 |  |
| PRIRTVGPGSRSASGKLTCVASYCWLFWTGIA | > 1 |  |
| PRIRTVGPGSRSASGKLTCAASYCWLFWTGIA | > 1 |  |
| PRIRTVGPGSRSASGKLTCLASYCWLFWTSIA | < 0.5 |  |
| PRIRTVGPGSRRASGKLTCLASYCWLFWTGIA | < 0.5 |  |
| PRIRTVGPGSRSASGKLTCLASACWLFWTGIA | > 1 |  |
| PRIRTVGPGSRSASGKLTCFASYCWLFWTGIA | > 1 |  |
| PRIRTVGPGSRSASGKLSCLASYCWLFWTGIA | < 0.5 |  |
